Experimental data from patent publication US20090312245A1, “SRA binding protein” (The University of Western Australia, priority 2005, published 2009).

How the values were obtained:
[1] = system: estrogen receptor (ER); test: ERE-Luc (E2-responsive) reporter transfection assay in HeLa cells; assay type: cell-based, human
Method: HeLa cells were transfected using FuGENE6 (Roche) with equal molar ratios of control and plasmid DNA: 50 ng/well ER(α); 0.6 μg/well ERE-Luc, GRE-Luc, TRE-Luc, ARE-Luc, VDRE-Luc; 0.0625 μg/well pSCT or 0.08 μg/well pSCT-SRA/pSCT-SRA-SDM7a; 0.049 μg/well pCMV-FLAG-7.1 or […] FLAG-SLIRP/FLAG-SLIRP-R24/FLAG-SLIRP-L62/FLAG-SLIRP-DM; 0.3 μg/well pCMX or 0.5 μg/well pCMX-SHARP; 100 ng/well pCGN or 100 ng/well pCGN-SKIP. After transfection, cells were cultured in complete medium for 24 h, prior to the addition of E2 (10 nM), Dex (10 nM), T3 (1 nM), DHT (10 nM), VitD (100 nM), 4-hydroxytamoxifen (Tam, 1 nM), ICI182780 (ICI, 1 nM) or equal volume of vehicle (absolute ethanol or water). After 8 h, lysates were assayed for luciferase activity relative to protein levels using Luciferase (Promega) and Protein Assay (BioRad) on a FluorStar Optima (BMG).

[2] = system: SRA STR7; test: REMSA with 32P-labeled SRA STR7 probe and recombinant proteins; assay type: binding, human; settings: in the presence of heparin and RNase T1
Source text: The yeast three-hybrid SLIRP cDNA clone containing the coding region and 3′ UTR, was amplified with specific primers SLIRP (sense) 5′ cgc gga tcc gcg gcc tca gca gca 3′, SLIRP (reverse) 5′ gcg cgg atc cta ggc tgc agt ctca 3′, and subcloned into BamHI cut pCMV-FLAG 7.1 for transfection assays and pGEX-6P2 for GST-fusion protein experiments. STR7 primers (sense) 5′ agg agg cag gta tgt gat gac atc agc cga cgc ctg gca ctg ctg cag gaa cag tgg gct gga gga aag ttg tca ata cct gta aag aa 3′ and (reverse) 5′ ttc ttt aca ggt aft gac aac ttt cct cca gcc cac tgt tcc tgc agc agt gcc agg cgt cgg ctg atg tca tca cat acc tgc ttc ct 3′ were annealed and cloned into EcoRV-digested pBluescript II KS+ to generate labeled riboprobes. To generate the SRA mutant SDM7, the underlined residues above were mutated to tcc, ctc and ctc as outlined previously (19). pBluescript vectors were linearized with EcoRV for transcription with T7 or T3 RNA polymerase (Invitrogen) in reactions containing [^32P]UTP (Amersham Biosciences) or unlabeled UTP, as described (16), to produce riboprobes with a specific activity of ˜2×10^9 cpm/μg RNA. Constructs for expressing mutant forms of SLIRP (R24, 25A and L62A) were prepared by PCR-based mutagenesis. Each of the mutant coding domains was subcloned into BamH1-cut pCMV-FLAG 7.1 and pGEX-6P2 as above. […]

With “SHARP: SMRT/HDAC1 associated repressor protein, SRA corepressor, transfected expression vector [reference compound]” the “repression of SRA-mediated coactivation of E2-responsive reporter” value ([1]; cotransfected with SRA) was “repressed SRA-mediated coactivation”.

B1: GST-SHARP-RRM: GST-SHARP fusion protein containing the three RRM domains (SHARP aas 1-608) (protein, UniProt Q96T58 1-608, looked up, fragment)
chain: MVRETRHLWVGNLPENVREEKIIEHFKRYGRVESVKILPKRGSEGGVAAFVDFVDIKSAQKAHNSVNKMGDRDLRTDYNEPGTIPSAARGLDDTVSIASRSREVSGFRGGGGGPAYGPPPSLHAREGRYERRLDGASDNRERAYEHSAYGHHERGTGGFDRTRHYDQDYYRDPRERTLQHGLYYASRSRSPNRFDAHDPRYEPRAREQFTLPSVVHRDIYRDDITREVRGRRPERNYQHSRSRSPHSSQSRNQSPQRLASQASRPTRSPSGSGSRSRSSSSDSISSSSSTSSDSSDSSSSSSDDSPARSVQSAAVPAPTSQLLSSLEKDEPRKSFGIKVQNLPVRSTDTSLKDGLFHEFKKFGKVTSVQIHGTSEERYGLVFFRQQEDQEKALTASKGKLFFGMQIEVTAWIGPETESENEFRPLDERIDEFHPKATRTLFIGNLEKTTTYHDLRNIFQRFGEIVDIDIKKVNGVPQYAFLQYCDIASVCKAIKKMDGEYLGNNRLKLGFGKSMPTNCVWLDGLSSNVSDQYLTRHFCRYGPVVKVVFDRLKGMALVLYNEIEYAQAAVKETKGRKIGGNKIKVDFANRESQLAFYHCMEKSGQDIRD
modifications: GST fusion
For B1, the “binding to SRA STR7 probe” value [2] was “bound STR7 avidly”.

B2: SKIP: coregulator, coactivator of ER transactivation, transfected expression vector (protein, UniProt Q13573 2-536, looked up)
SNW domain-containing protein …: ALTSFLPAPTQLSQDQLEAEEKARSQRSRQTSLVSSRREPPPYGYRKGWIPRLLEDFGDGGAFPEIHVAQYPLDMGRKKKMSNALAIQVDSEGKIKYDAIARQGQSKDKVIYSKYTDLVPKEVMNADDPDLQRPDEEAIKEITEKTRVALEKSVSQKVAAAMPVRAADKLAPAQYIRYTPSQQGVAFNSGAKQRVIRMVEMQKDPMEPPRFKINKKIPRGPPSPPAPVMHSPSRKMTVKEQQEWKIPPCISNWKNAKGYTIPLDKRLAADGRGLQTVHINENFAKLAEALYIADRKAREAVEMRAQVERKMAQKEKEKHEEKLREMAQKARERRAGIKTHVEKEDGEARERDEIRHDRRKERQHDRNLSRAAPDKRSKLQRNENRDISEVIALGVPNPRTSNEVQYDQRLFNQSKGMDSGFAGGEDEIYNVYDQAWRGGKDMAQSIYRPSKNLDKDMYGDDLEARIKTNRFVPDKEFSGSDRRQRGREGPVQFEEDPFGLDKFLEEAKQHGGSKRPSDSSRPKEHEHEGKKRRKE
For B2, the “total increase in reporter activity” value ([1]; SKIP with cotransfected SRA) was roughly 6 fold and the “increase of reporter activity” value ([1]; transfected SKIP alone) was roughly 2 fold.
